In patent US20250041389A1, “ENHANCING ABSORPTION OF DIETARY COMPOUNDS TO PROMOTE HEALTH” (ARIZONA BOARD OF REGENTS ON BEHALF OF THE UNIVERSITY OF …, priority 2023, published 2025):

How the values were obtained:
[1] = Oral gavage of GUSB followed by curcumin in mice; assay of curcumin metabolites in serum and bone; format: in vivo, C57BI6 mice; details: after oral administration of GUSB with curcumin; FIG. 1
From the text: Experimental Methods: Administer 140 U/g body weight of GUSB (E. coli-derived [Sigma G840]) orally via gavage (vs vehicle) to 10-week-old male C57BI6 mice.

[2] = Enzymatic activity of orally administered enzyme after passage through proteolytic sections of the GI tract; format: in vivo; details: oral administration

B1: GUSB: Beta-glucuronidase enzyme; E. coli-derived [Sigma G840] in Example 1 (protein, UniProt P05804 1-603, looked up)
Beta-glucuronidase: MLRPVETPTREIKKLDGLWAFSLDRENCGIDQRWWESALQESRAIAVPGSFNDQFADADIRNYAGNVWYQREVFIPKGWAGQRIVLRFDAVTHYGKVWVNNQEVMEHQGGYTPFEADVTPYVIAGKSVRITVCVNNELNWQTIPPGMVITDENGKKKQSYFHDFFNYAGIHRSVMLYTTPNTWVDDITVVTHVAQDCNHASVDWQVVANGDVSVELRDADQQVVATGQGTSGTLQVVNPHLWQPGEGYLYELCVTAKSQTECDIYPLRVGIRSVAVKGEQFLINHKPFYFTGFGRHEDADLRGKGFDNVLMVHDHALMDWIGANSYRTSHYPYAEEMLDWADEHGIVVIDETAAVGFNLSLGIGFEAGNKPKELYSEEAVNGETQQAHLQAIKELIARDKNHPSVVMWSIANEPDTRPQGAREYFAPLAEATRKLDPTRPITCVNVMFCDAHTDTISDLFDVLCLNRYYGWYVQSGDLETAEKVLEKELLAWQEKLHQPIIITEYGVDTLAGLHSMYTDMWSEEYQCAWLDMYHRVFDRVSAVVGEQVWNFADFATSQGILRVGGNKKGIFTRDRKPKSAAFLLQKRWTGMNFGEKPQQGGKQ
enzyme levels in the body [1]: unchanged | enzymatic activity after passing through the proteolytic sections of the GI tract (stomach and duodenum) [2]: retain their enzymatic activity
